Measured values as given in patent US20140336116A1 (GLYTECH, published 2014).
Like-named read-outs stand apart in the source and are kept apart here. Bridges are numbered along the chain shown (N, C = ends). Where no end group is shown, it is not given here. Side-chain parts run from the residue outwards. disialo(aminoethylamide) = disialo sugar chain with sialic acid carboxy groups modified by aminoethylamino groups; diGlcNAc = diGlcNAc sugar chain; disialo = disialo sugar chain; GlcNAc = N-acetylglucosamine; asialo = not defined here

Assays:
[1] = target: T1, somatostatin receptor SSTR4 (Human, UniProt P31391 1-388); experiment: cell-based or functional assay
T1 sequence (P31391 whole entry): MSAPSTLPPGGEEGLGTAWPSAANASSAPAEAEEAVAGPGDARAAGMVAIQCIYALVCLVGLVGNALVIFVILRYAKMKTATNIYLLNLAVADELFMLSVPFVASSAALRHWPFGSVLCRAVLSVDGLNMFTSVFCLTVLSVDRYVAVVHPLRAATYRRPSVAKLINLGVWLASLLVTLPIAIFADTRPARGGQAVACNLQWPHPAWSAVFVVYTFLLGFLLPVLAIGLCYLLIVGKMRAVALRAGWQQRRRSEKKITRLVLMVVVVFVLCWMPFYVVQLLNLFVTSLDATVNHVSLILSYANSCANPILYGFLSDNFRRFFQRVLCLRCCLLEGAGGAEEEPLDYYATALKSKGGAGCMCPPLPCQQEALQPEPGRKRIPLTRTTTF

[2] = target: T1, somatostatin receptor SSTR4; experiment: cell-based or functional assay; remark: listed apart in the source
[3] = target: T2, somatostatin receptor SSTR2 (Human, UniProt P30874 1-369); experiment: cell-based or functional assay
T2 sequence (P30874 whole entry): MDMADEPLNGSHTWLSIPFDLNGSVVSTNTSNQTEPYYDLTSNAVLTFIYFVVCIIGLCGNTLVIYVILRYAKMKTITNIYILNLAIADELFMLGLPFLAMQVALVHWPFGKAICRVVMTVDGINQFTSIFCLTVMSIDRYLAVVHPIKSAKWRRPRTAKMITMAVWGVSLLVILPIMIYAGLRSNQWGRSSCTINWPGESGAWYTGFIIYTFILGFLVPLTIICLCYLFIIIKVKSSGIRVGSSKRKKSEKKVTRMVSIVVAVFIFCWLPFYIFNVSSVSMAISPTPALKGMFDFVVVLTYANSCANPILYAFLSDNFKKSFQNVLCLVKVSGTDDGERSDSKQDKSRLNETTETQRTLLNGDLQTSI

[4] = target: T1, somatostatin receptor SSTR4; experiment: cell-based or functional assay; remark: listed apart in the source
[5] = target: T2, somatostatin receptor SSTR2; experiment: cell-based or functional assay; remark: listed apart in the source
[6] = target: T2, somatostatin receptor SSTR2; experiment: radioligand competition
[7] = target: somatostatin receptor SSTR5 (Human, UniProt P35346 1-364); experiment: cell-based or functional assay
Chain of somatostatin receptor SSTR5 (P35346 whole entry): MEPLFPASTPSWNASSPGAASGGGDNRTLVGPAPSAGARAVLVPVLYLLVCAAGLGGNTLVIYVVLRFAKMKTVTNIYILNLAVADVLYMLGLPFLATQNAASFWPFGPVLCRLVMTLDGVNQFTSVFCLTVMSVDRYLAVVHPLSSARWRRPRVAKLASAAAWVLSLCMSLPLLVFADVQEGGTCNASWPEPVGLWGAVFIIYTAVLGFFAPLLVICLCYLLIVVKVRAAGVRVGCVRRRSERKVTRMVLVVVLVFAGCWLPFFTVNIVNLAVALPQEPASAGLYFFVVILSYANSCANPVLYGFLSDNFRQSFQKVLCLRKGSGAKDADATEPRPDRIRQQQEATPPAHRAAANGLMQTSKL

[8] = target: T3, somatostatin receptor SSTR1 (Human, UniProt P30872 1-391); experiment: cell-based or functional assay
T3 sequence (P30872 whole entry): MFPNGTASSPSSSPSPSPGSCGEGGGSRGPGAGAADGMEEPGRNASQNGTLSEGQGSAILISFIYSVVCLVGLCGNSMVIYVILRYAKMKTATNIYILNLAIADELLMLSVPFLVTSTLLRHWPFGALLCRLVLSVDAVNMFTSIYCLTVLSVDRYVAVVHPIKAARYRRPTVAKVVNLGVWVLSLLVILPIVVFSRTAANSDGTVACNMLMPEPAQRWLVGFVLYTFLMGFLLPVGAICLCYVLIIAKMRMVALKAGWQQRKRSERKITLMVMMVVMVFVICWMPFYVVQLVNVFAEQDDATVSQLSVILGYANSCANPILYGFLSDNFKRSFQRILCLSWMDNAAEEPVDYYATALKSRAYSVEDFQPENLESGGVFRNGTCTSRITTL

[9] = target: T3, somatostatin receptor SSTR1; experiment: cell-based or functional assay; remark: listed apart in the source
[10] = target: T4, somatostatin receptor SSTR3 (Human, UniProt P32745 1-418); experiment: cell-based or functional assay
T4 sequence (P32745 whole entry): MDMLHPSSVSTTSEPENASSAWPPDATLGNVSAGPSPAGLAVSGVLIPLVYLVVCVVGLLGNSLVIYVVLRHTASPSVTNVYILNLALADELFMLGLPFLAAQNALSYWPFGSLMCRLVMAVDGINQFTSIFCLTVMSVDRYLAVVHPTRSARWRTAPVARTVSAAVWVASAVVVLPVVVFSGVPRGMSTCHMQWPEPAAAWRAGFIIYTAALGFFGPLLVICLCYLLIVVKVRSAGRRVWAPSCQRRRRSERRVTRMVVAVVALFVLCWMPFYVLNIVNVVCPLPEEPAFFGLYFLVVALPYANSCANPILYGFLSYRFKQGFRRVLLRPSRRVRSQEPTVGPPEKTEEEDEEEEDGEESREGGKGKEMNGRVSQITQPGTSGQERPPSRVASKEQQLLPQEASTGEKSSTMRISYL

[11] = target: T4, somatostatin receptor SSTR3; experiment: cell-based or functional assay; remark: listed apart in the source

B1: 3C(disialo)-R-K-SRIF14 (peptide)
peptide: CCCRKAGCKNFFWKTFTSC
modifications: disialo sugar chain on each of the three N-terminal Cys of the added Cys-Cys-Cys-Arg-Lys-; disulfide Cys17-Cys28
B1 was tested, and the IC50, cAMP production suppressing action [1] was 1.6 nM.

With C(diGlcNAc)ANSNPAMAPRERKAGCKNFFWKTFTSC (disulfide 17-28) [S1C(diGlcNAc)-SRIF28] the “IC50, cAMP production suppressing action” value [2] was 0.05 nM.

For C(GlcNAc)ANSNPAMAPRERKAGCKNFFWKTFTSC (disulfide 17-28) [S1C(GlcNAc)-SRIF28], the “IC50, cAMP production suppressing action” value [3] was 0.04 nM.

For C(disialo)ANSNPAMAPRERKAGCKNFFWKTFTSC (disulfide 17-28) [S1C(disialo)-SRIF28], the “IC50, cAMP production suppressing action” value [4] was 0.065 nM, the “IC50, cAMP production suppressing action” value [5] was 0.075 nM and the Ki [6] was 0.269 nM.

In the case of C(disialo)ANSC(disialo)PAMAPRERKAGCKNFFWKTFTSC (disulfide 17-28) [S1C(disialo)•N5C(disialo)-SRIF28], the “IC50, cAMP production suppressing action” value [7] is reported as 0.09 nM.

For C(disialo)ANSNPAMAPRERKAGCKC(GlcNAc)FFWKTFTSC (disulfide 17-28) [S1C(disialo)•N19C(GlcNAc)-SRIF28], the “IC50, cAMP production suppressing action” value [3] was 0.08 nM.

C(trisialo sugar chain)ANSNPAMAPRERKAGCKNFFWKTFTSC (disulfide 17-28) [S1C(trisialo)-SRIF28] was tested, and the “IC50, cAMP production suppressing action” value [7] was 0.09 nM.

In the case of C([Asn-disialo])ANSNPAMAPRERKAGCKNFFWKTFTSC (disulfide 17-28) [S1C(Asn(disialo))-SRIF28], the “IC50, cAMP production suppressing action” value [8] is reported as 2 nM.

For C(disialo sugar chain)RKAGCKNFFWKTFTSC (disulfide 6-17) [C(disialo)-R-K-SRIF14], the “IC50, cAMP production suppressing action” value [4] was 0.05 nM.

In the case of C(disialo(aminoethylamide))ANSNPAMAPRERKAGCKNFFWKTFTSC (disulfide 17-28) [S1C(disialo(aminoethylamide))-SRIF28], the “IC50, cAMP production suppressing action” value [9] is reported as 1 nM, the “IC50, cAMP production suppressing action” value [5] is reported as 0.1 nM and the “IC50, cAMP production suppressing action” value [10] is reported as 0.3 nM.

With CAGCKNFFWKTFTSC (disialo sugar chain on the Cys added before Ala15; disulfide Cys17-Cys28) [C(disialo)-SRIF14] the “IC50, cAMP production suppressing action” value [2] was 0.1 nM.

B2: S1-3C(asialo)-SRIF28 (peptide)
peptide: CCCANSNPAMAPRERKAGCKNFFWKTFTSC
modifications: Ser1 replaced by three consecutive Cys each with an asialo sugar chain; disulfide Cys17-Cys28
B2 was tested, and the “IC50, cAMP production suppressing action” value [2] was 0.1 nM.

In the case of C(disialo sugar chain)KAGCKNFFWKTFTSC (disulfide 5-16) [C(disialo)-K-SRIF14], the “IC50, cAMP production suppressing action” value [11] is reported as 0.1 nM.

In the case of C(asialo)ANSNPAMAPRERKAGCKNFFWKTFTSC (disulfide 17-28; reading uncertain) [S1C(asialo)-SRIF28], the IC50 [6] is reported as 0.2 nM.
